Experiments:
[1] = target: Chlamydomonas reinhardtii CFAP410 C-terminal domain, wild type (Chlamydomonas reinhardtii); assay: SEC-MALS
[2] = target: Chlamydomonas reinhardtii CFAP410 C-terminal domain, wild type (Chlamydomonas reinhardtii); assay: crystal structure
[3] = target: Trypanosoma brucei CFAP410 C-terminal domain, wild type (Trypanosoma brucei); assay: crystal structure
[4] = target: Chlamydomonas reinhardtii CFAP410 C-terminal domain, mutant A219E (Chlamydomonas reinhardtii); assay: SEC-MALS
[5] = target: Homo sapiens CFAP410 C-terminal domain, wild type (Homo sapiens) (UniProt O43822); assay: crystal structure

Substance: Chlamydomonas reinhardtii CFAP410 C-terminal domain, wild type (peptide)
- stoichiometry N [1]: 4
- stoichiometry N [2]: 4

Substance: Trypanosoma brucei CFAP410 C-terminal domain, wild type (peptide)
- stoichiometry N [3]: 4

Substance: Chlamydomonas reinhardtii CFAP410 C-terminal domain, mutant A219E (peptide)
- stoichiometry N [4]: 2

Substance: Homo sapiens CFAP410 C-terminal domain, wild type (from UniProt O43822 212-246) (peptide)
- stoichiometry N [5]: 4
